{
  "source": "patent US20240368668A1",
  "about": "“SUBSTRATES AND BIOMARKERS OF ADAMTS7” (The Broad Institute, Inc., priority 2021, published 2024)",
  "data": [
    {"target": "T1, mouse ADAMTS7 (Mus musculus, UniProt Q68SA9)", "T1 construct": "Full-length mouse Adamts7 1-1857 (Uniprot Q68SA9, WT or E373Q catalytic mutant); expressed in transfected cells; host or cells: Human Coronary Artery Smooth Muscle Cells (HCA-SMC, Lonza), adenovirus 50 MOI", "T1 sequence (Q68SA9 221-1657)": "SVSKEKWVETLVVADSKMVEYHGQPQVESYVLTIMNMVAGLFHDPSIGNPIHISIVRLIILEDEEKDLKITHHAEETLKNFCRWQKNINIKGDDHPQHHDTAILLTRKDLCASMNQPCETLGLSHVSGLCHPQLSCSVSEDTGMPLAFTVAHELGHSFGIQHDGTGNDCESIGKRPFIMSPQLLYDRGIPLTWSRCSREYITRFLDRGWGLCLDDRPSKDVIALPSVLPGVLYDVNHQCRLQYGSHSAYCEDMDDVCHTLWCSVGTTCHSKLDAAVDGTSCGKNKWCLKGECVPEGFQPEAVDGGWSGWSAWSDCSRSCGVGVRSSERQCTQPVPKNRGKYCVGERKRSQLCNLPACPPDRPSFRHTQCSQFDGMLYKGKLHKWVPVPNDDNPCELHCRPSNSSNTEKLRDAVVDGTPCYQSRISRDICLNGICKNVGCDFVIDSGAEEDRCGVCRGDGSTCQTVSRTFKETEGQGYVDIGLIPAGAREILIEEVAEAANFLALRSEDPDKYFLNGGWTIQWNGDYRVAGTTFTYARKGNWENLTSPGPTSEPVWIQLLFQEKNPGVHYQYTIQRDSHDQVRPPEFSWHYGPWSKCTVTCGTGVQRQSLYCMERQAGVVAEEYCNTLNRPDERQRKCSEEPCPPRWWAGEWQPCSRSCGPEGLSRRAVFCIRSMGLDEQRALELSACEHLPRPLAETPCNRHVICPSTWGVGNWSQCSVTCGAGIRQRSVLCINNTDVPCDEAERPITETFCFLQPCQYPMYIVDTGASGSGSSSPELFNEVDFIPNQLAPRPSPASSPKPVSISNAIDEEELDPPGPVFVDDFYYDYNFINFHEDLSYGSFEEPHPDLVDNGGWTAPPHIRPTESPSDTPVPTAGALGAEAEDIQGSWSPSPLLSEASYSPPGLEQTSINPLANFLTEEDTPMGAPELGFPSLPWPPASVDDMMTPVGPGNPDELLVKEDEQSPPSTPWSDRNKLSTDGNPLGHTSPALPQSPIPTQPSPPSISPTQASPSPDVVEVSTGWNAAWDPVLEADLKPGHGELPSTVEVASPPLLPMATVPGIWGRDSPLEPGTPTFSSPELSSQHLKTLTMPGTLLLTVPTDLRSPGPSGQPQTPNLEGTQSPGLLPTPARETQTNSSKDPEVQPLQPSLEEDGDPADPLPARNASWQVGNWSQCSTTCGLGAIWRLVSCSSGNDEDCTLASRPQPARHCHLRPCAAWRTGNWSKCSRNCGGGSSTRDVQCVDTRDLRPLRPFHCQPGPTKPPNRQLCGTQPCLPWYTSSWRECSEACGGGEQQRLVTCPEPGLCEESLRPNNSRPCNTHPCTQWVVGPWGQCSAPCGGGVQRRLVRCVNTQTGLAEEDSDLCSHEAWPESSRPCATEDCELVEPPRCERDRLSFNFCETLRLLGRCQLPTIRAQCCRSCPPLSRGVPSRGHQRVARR", "test": "TMT10 TAILS N-terminomics, HUVEC experiment (process replicates, trypsin/AspN digest)", "format": "cell-based, human", "settings": "HUVEC TAILS HC; log fold change of N-terminal peptide, Ad-mADAMTS7 WT over Luc", "excerpt": "ADAMTS7 Expression, Cell Culture and Preparation of the Secreted Proteins—Full-length mouse Adamts7 1-1857 (Uniprot Q68SA9, WT or E373Q catalytic mutant) with a carboxyl terminal 3xFLAG tag was used to generate custom adenoviruses as previously described. Adeno-CMV-Luciferase (Ad-Luc) from Vector Biolabs was used as a negative control. Human Coronary Artery Smooth Muscle Cells (HCA-SMC) were obtained from Lonza and expanded in Lonza SmGM-2 media in 15 cm tissue culture plates. Twenty-four hours before media collection, near confluent plates were transduced with 50 MOI adenovirus and switched to Lonza Basal SM media with volumes of 20 ml per 15 cm plate. Expression of the Flag tagged ADAMTS7 was confirmed from the media using western blot and detected using the anti-Flag M2-HRP antibody (Sigma, A8592). Collected media was processed by adding protease inhibitors (1 mM EDTA and 1 mM PMSF) and clarified by 500 g×5 min spin at 4 C to pellet cell debris. Cell media supernatants were then passed through a 0.22 um filter and kept chilled. Processed media was then concentrated 50-100× using 3 kDa Centricon Plus-70 filter unit, spun at 3,500 g×60 min at 4 C. Approximately 10% of the processed, concentrated media was set aside for total secretome proteolytic analysis. The remaining 90% of the processed, concentrated media was buffer exchanged into 50 mM HEPES pH 8.0, 150 mM NaCl (2×50 ml) using the 3 kDa Centricon Plus-70 filter unit and concentrated to >2 mg/ml to serve as input for the TAILS experiment. Secretome and TAILS input samples were stored at −80° C.\nFor the first experiment, referred to as SMC1, 120 ml of media from 6×15 cm dishes was pooled from each condition (Luc, WT, EQ) and processed to produce three separate inputs for the TAILS experiment. Luc, WT and EQ inputs from the SMC1 experiment were each divided into triplicate 400 ug samples to generate technical replicate TAILS data. For the second experiment, referred to as SMC2, media was processed separately in triplicate for each condition (Luc1, Luc2, Luc3, WT1, WT2, WT3, EQ1, EQ2, EQ3) using 60 ml of media from 3×15 cm dishes for each process replicate. Inputs from the SMC2 experiment used process replicates of 300 ug each to generate TAILS data. The third experiment used input from cultured Human umbilical vein endothelial cells (HUVEC) from Lifeline Cell Technology grown in VascuLife Media and transduced in Lifeline Basal EC (+bFGF2 10 ng/ml). The HUVEC experiment used the same strategy as the SMC2 experiment, with 40 ml of media from 2×15 cm dishes for each process replicate and used 200 ug each to generate TAILS data. Inputs for process replicate experiments were restricted to the lowest concentration from the 9 parallel samples for SMC2 or HUVEC.\nTMT10 isotopic labeling and negative selection of non-labeled peptides-Sample preparation was performed based on the TAILS protocol from the Overall lab with some modifications. From a single experiment, nine parallel protein samples in 50 mM HEPES pH 8.0, 150 mM NaCl were separately denatured with guanidinium chloride (Sigma, G4505) to reach a final concentration of 2.5M guanidinium chloride and 250 mM HEPES and incubated at 65° C. for 15 min. Reduction was achieved through addition of tris(2-carboxylethyl) phosphine (TCEP) at a final concentration of […] and incubated at 65° C. for 45 min. Alkylation reaction was performed with addition of iodoacetamide (IAA, Sigma, A3221) to a final concentration of 10 mM IAA for 15 min at room temperature in the dark. Following denaturation, reduction and alkylation steps, ten percent of each of the nine parallel protein samples was removed and combined to serve as a pooled reference. Isobaric tags were added to free amine groups using the TMT10plex Isobaric Mass Tagging Kit (ThermoFisher, 90113) with TMT channels randomly assigned to the nine samples and TMT 131 assigned to the pooled reference. […]", "values": [
      {"substance": "LTBP1_393 (LTATNFR; listed as Homo sapiens)", "logFC.mWT.over.Luc": 3.14},
      {"substance": "HSPG2_2331 (ANLAYPAGSTQPIR; listed as Homo sapiens)", "logFC.mWT.over.Luc": 1.72},
      {"substance": "EFEMP1_124 (AVAGPEMQTGR; listed as Homo sapiens)", "logFC.mWT.over.Luc": 2.92},
      {"substance": "FN1_1656 (SSSPVTGYR; listed as Homo sapiens)", "logFC.mWT.over.Luc": 1.56},
      {"substance": "LOX_124 (WFQAGYSTSR; listed as Homo sapiens)", "logFC.mWT.over.Luc": 3.38},
      {"substance": "FLNA_1285 (LTQTGGPHVKAR; listed as Homo sapiens)", "logFC.mWT.over.Luc": 3.29},
      {"substance": "FBN1_29 (LEAGNVKETR; listed as Homo sapiens)", "logFC.mWT.over.Luc": 3.57},
      {"substance": "FN1_40 (QSPVAVSQSKPGCYDNGKHYQINQQWER; listed as Homo sapiens)", "logFC.mWT.over.Luc": 2.45},
      {"substance": "LOXL2_37 (FQQPAPEYHQPQAPANVAKIQLR; listed as Homo sapiens)", "logFC.mWT.over.Luc": 2.82},
      {"substance": "AEBP1_37 (FLEGFLSELEPEPR; listed as Homo sapiens)", "logFC.mWT.over.Luc": 3.77},
      {"substance": "IGFBP7_101 (AAGGPGVSGVCVCKSR; listed as Homo sapiens)", "logFC.mWT.over.Luc": 1.86},
      {"substance": "FN1_36 (MVQPQSPVAVSQSKPGCYDNGKHYQINQQWER; listed as Homo sapiens)", "logFC.mWT.over.Luc": 2.98},
      {"substance": "FN1_886 (NQESTPVVIQQETTGTPR; listed as Homo sapiens)", "logFC.mWT.over.Luc": 1.61},
      {"substance": "FN1_1143 (LTPGVEYVYTIQVLR; listed as Homo sapiens)", "logFC.mWT.over.Luc": 3.43}
    ]}
  ]
}
